According to patent publication US20160109449A1 (JULIUS MAXIMILIANS UNIVERSITAET WUERZBURG, published 2016):

Target: T1, recombinant IsaA protein of Staphylococcus aureus (29 kDa immunodominant antigen IsaA) (Staphylococcus aureus, UniProt Q2FV52 30-233, limits assumed)
T1 construct: Coated as rIsaA in the ELISA; In the first SPR experiment it was N-biotinylated with sulfo-NHS-LC-biotin (mostly at a single site) and immobilised on streptavidin; In the second SPR experiment it was the analyte in solution; also called rIsaA; 29 kDa IsaA antigen
T1 sequence (looked up): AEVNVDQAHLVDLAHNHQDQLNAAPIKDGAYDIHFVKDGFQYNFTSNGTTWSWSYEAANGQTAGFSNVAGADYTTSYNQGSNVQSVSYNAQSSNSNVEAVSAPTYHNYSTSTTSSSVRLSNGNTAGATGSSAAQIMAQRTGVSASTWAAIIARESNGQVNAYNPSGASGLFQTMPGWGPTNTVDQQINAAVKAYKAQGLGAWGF
Assay: SPR (BIACORE 2000), biotinylated IsaA on streptavidin chip, antibody as analyte; off rate set to 10^-5 sec^-1; off rate set to 10^-5 sec^-1
Method: The amount of the immobilized antigen corresponds to about 100 resonance units [RU] measured by means of the BIACORE®2000 system.
Interaction analyses were performed using HBS150 buffer (10 mM HEPES pH7.4, 150 mM NaCl, 3.4 mM EDTA). Sensorgrams were recorded at a flow rate of 10 μl/min at 25° C. The association and dissociation time was set to 10 min. The chips were regenerated after each cycle with different regeneration solutions (A: 1 mM CH₃COOH, 1 M NaCl, pH 3; B: 4 M MgCl₂; C: 1 mM CH₃COOH, 1 M NaCl, 6 M Urea, pH 3) for 2 min.
Since the evaluation of the kinetic rate constant is limited to 10⁻⁵ sec⁻¹ the observed off-rate has to be smaller than that value.

B1: monoclonal antibody MAB-UK-66 secreted by hybridoma cell line DSM ACC2987 (antibody, V domains shown)
VH: DVKLVESGGGLVKLGGSLKLSCSASGFTFSNYYMSWVRQTPEKRLELVADINGNGGSTYYPDTVKGRFTISRDNAKNTLYLQMSSLKSEDTALYYCVRRGGYYALDYWGQGTTVTVSS
VL: DVVMTQTPLSLPVSLGDQASISCRSSQSLVHINGNTYLHWYLQKPGQSPKLLIYRVSNRFSGVPDRFSGSGSGTDFTLKISRVEAEDLGVYFCSQSTHVPWTFGGGTKLELKR
notes: Monoclonal mouse antibody from a hybridoma; Detected with anti-mouse IgG; also called antibodies secreted by cell line DSM ACC2987; anti-IsaA MAB
**Q.** How did the Kd turn out when B1 was run?
**A.** ≤ 0.018 nM

**Q.** And the kon?
**A.** 560000 M⁻¹ s⁻¹
